Measured values from the DeepSol protein solubility set.

Experiment: soluble on expression in E. coli; label from the status in PepcDB or PDB records

Sequence | soluble on expression in E. coli
SMTYIPPGESLRDLIEQSQSSGSGSGLPLLVQRTIAKQIQMVKQIGKGRYGEVWMGKWRGEKVAVKVFFTTEEASWFRETEIYQTVLMRHENILGFIAADIKGTGSWTQLYLITDYHENGSLYDYLKSTTLDAKSMLKLAYSSVSGLCHLHTEIFSTQGKPAIAHRDLKSKNILVKKNGTCCIADLGLAVKFISDTNEVDIPPNTRVGTKRYMPPEVLDESLNRNHFQSYIMADMYSFGLILWEVARRCVSGGIVEEYQLPYHDLVPSDPSYEDMREIVCIKKLRPSFPNRWSSDECLRQMGKLMTECWAHNPASRLTALRVKKTLAKMSESQDIKL | soluble
MKTLIKNGKIIKKENQLIEAALWLENGVIHAIGESFDEADFEQVFDANGQLITPGLVDVHVHFREPGFTYKETIKTGSKAAARGGFTTVCAMPNLNPVPDTAEKLSEVYDLIQKDAVVKVLQYAPITEELRSEVLTNQKALKEAGAFAFTNDGVGVQTAGTMYLAMKEAAALNMALVAHTEDESLLFGGVMHEGEVSKKLGLPGILSATEASQIARDITLAKETGVHYHVCHVSTEESVRVIRDAKKAGIHVTAEVSPHHLILVDEDIPGDEGFWKMNPPLRGLADRQALIDGLLDGTIDCIATDHAPHGLEEKQQSFLNAPFGIVGSETAFQLIYTNFVETGIFTLEQVIDWMAVKPAEIFGLNAGTLTIGAPADIAVFDLATAAPIDAEAFESMAVNTPFTGWTVKGKTLMTFVDGALAWSEEAQ | not soluble
MDKSNGLRVILFPLPLQGCINPMIQLAKILHSRGFSITVIHTRFNAPKASNHPLFTFLQIPDGLSETETRTHDITLLLTLLNRSCESPFRECLTKLLQSADSETGEEKQRISCLIDDSGWIFTQPVAQSFNLPRLVLNTYKVSFFRDHFVLPQLRREMYLPLQDSEQGDDPVEEFPPLRKKDLLQILDQESEQLDSYSNMILETTKASSGLIFVSTCEELDQDSLSQAREDYQVPIFTIGPSHSYFPGSSSSLFTVDETCIPWLDKQEDKSVIYVSFGSISTIGEAEFMEIAWALRNSDQPFLWVVRGGSVVHGAEWIEQLHEKGKIVNWAPQQEVLKHQAIGGFLTHNGWNSTVESVFEGVPMICMPFVWDQLLNARFVSDVWMVGLHLEGRIERNVIEGMIRRLFSETEGKAIRERMEILKENVGRSVKPKGSAYRSLQHLIDYITYF | soluble
AKHLFTSESVSEGHPDKIADQISDAVLDAILEQDPKARVACETYVKTGMVLVGGEITTSAWVDIEEITRNTVREIGYVHSDMGFDANSCAVLSAIGKQSPDINQGVDRADPLEQGAGDQGLMFGYATNETDVLMPAPITYAHRLVQRQAEVRKNGTLPWLRPDAKSQVTFQYDDGKIVGIDAVVLSTQHSEEIDQKSLQEAVMEEIIKPILPAEWLTSATKFFINPTGRFVIGGPMGDCGLTGRKIIVDTYGGMARHGGGAFSGKDPSKVDRSAAYAARYVAKNIVAAGLADRCEIQVSYAIGVAEPTSIMVETFGTEKVPSEQLTLLVREFFDLRPYGLIQMLDLLHPIYKETAAYGHFGREHFPWEKTDKAQLLRDAAGLK | soluble
MTPFAEAVRQLRERKGVTQKEMAAAIGVSPAYLSALEHGKRGKPSFDLLQRIAGYFNIIWDEAEELFFLAGSSDPKVVIDTVGLPPQYTAFANRLARDIRKLPPSVVEELSAVLQKSRSCD | not soluble
MAHHHHHHMMRCSRGCRRQLRPYYNLPSKSDHGRKMTGFLTPYRHWMWKQNELWRNVHEAQFEHLRKVYKRQWLESFRVNADEYIYKYNITKAAQLAQWEYEMQAQEKKRLEAKQMTEGRQALKKKHLDLLREFHERQFFFWYERASERLQSMNLIQYIPQSRVQEHIERELDKYVAGKSEAYPLNFVGQMPLVEDREGNIVEVPEGLLTNHVSEHPESTVKPHQPHESTSVSVEEQLLRTMASAREESLEEWIDDSRALSETIDDISREEEQRDEDTRVARSMEETDNEREISRRMYIDRGKTGSKAIFRRPTLSETDGGSASIPVGGVAASPADTSAPMRRRKKGKLDKAHALQEQQDAMIARMSAKSLKDGESSISIVKRGEIATSRGRIRDKAAIPTQEVLMQKPELAAGSVPNARISFKDKVDQLYHRGKYKQKKEDDNNPNEDL | not soluble
MVLSQKLHEAFKGTVERITGPRTISAFKEKGVLSVSEFVLAGDNLVSKCPTWSWESGDASKRKPYLPSDKQFLITRNVPCLRRAASVAEDYEAAGGEVLVDDEDNDGWLATHGKPKGKEEDNLPSMDALDINEKNTIQSIPTYFGGEEDDDIPDMEEFDEADNVVENDPATLQSTYLVAHEPDDDNILRTRTYDLSITYDKYYQTPRVWLTGYDESRMLLQPELVMEDVSQDHARKTVTIEDHPHLPGKHASVHPCRHGAVMKKIIDVLMSRGVEPEVDKYLFLFLKFMASVIPTIEYDYTMDFDLGSSST | not soluble
MGSDKIHHHHHHMDDLLLELARQYRNRYYGKYRGFVTDNDDPEQRGRLRLMVPSVLGETPTGWALPSLPFGGLADQGLFMVPEVDAQVWVEFEAGNVNLPIWTGTFWQASGDPPAEAAKSPPTTRVLKTPSGHILQFDDESGAEKFRLAHPAGTEMTVDEKGTVIVADAKGNTLTLDADAGKVVVEDSNGNTITMSSSGTTIEDANGNKVEMAASGVTVKGQQVVVDAQTVMLAGQGGEPIIKGQSFLTLFATHVHPSAMGPTGPPIPQGEMSTLSMKVMTS | not soluble
MGSDKIHHHHHHMTFIDSPLSQTIALAGGDLHVAVARSDLPLGALCGFASRRNPKRPFLFVSKVLGRHLPVRPQVMRMVHRRLAAKLPANLPGPVVAIGMAETAICLGQGVFEAWRGGSGREDGLFIHSTRYRLRQGLLSTFEESHSHATSHLIHQPAAALDRALCAACRTLVLVDDEASTGATFVALVEANRAAMPNLARIVCVTITDWMGAAKRAEITAAMPVPTTFVSLLEGGYTFEARTVTPPAMPNVTGDGAFKDDLIPVNWGRLGLRRPRPLPAAALAIRAKAGERVLVLGTGEFVFPPFQLARRLSAMGADVRVQATTRSPILEGGDIDGVIDFADAYGDGIPNFLYSTRPGDYDRVLVCYETPPSTAQTALIAALGAEPVFFNAIGGPRT | not soluble
MSLARPNSKASIGTVFQDRAARYGDRVFLKFGDQQLTYRDANATANRYAAVLAARGVGPGDVVGIMLRNSPSTVLAMLATVKCGAIAGMLNYHQRGEVLAHSLGLLDAKVLIAESDLVSAVAECGASRGRVAGDVLTVEDVERFATTAPATNPASASAVQAKDTAFYIFTSGTTGFPKASVMTHHRWLRALAVFGGMGLRLKGSDTLYSCLPLYHNNALTVAVSSVINSGATLALGKSFSASRFWDEVIANRATAFVYIGEICRYLLNQPAKPTDRAHQVRVICGNGLRPEIWDEFTTRFGVARVCEFYAASEGNSAFINIFNVPRTAGVSPMPLAFVEYDLDTGDPLRDASGRVRRVPDGEPGLLLSRVNRLQPFDGYTDPVASEKKLVRNAFRDGDCWFNTGDVMSPQGMGHAAFVDRLGDTFRWKGENVATTQVEAALASDQTVEECTVYGVQIPRTGGRAGMAAITLRAGAEFDGQALARTVYGHLPGYALPLFVRVVGSLAHTTTFKSRKVELRNQEGHHHHHH | not soluble
MSELTQLAQQEKKQTYNFNKLQKRLRRNVGNAIADFGMIEDGDKVMVCLSGGKDSYTLLDILLNLQQSAPIKFDIVAVNLDQKQPGFPEHVLPEYLESIGVDYKIVQENTYGIVKEKIPEGKTTCSLCSRLRRGILYRTATELGATKIALGHHRDDMLATLFLNMFYGGKIKSMPPKLISDDGKQIVIRPLAYCKEKDIEKYAIAKEFPIIPCNLCGSQPNLQRQVVKEMLNTWDRQYPGRLETMFSAMQNITLSHMCDPKLFDFKGIKHGQLIDGIEGDTAFDEERITPMQFEDEDQTDFSNKEMINFKEVN | not soluble
GSEKRQHSSQDVHVVLKLWKSGFSLDNGELRSYQDPSNAQFLESIRRGEVPAELRRLAHGGQVNLDMEDHRDEDFVKPKGAFKAFTGEGQKLGSTAPQVLST | soluble
MAPPSDSDPREPSPPLFQGRGLTKRFGSFVANQAIDLDIAGGEVHALLGENGAGKSTLVKLITGLLQPDDGRMIWRGTPISFAGPAEARACGIAAVSQHFALFDNLTVVENVALGLDRRISVGRLATELEQISQRYGLPLDPKREVWRLSVGERQRIEIVRALLQNPQLLILDEPTAVLTPAEADRLFDVLQRLRADGRALLYISHKLDEVKRLASVATILRAGRVVGSCDPRQESAASMARMMVGSDVTAPKQSSHSIGGPLLSVSGLTQRPDDPHGVTLRDIALEVRSGEIVGIAGVAGNGQDELFAALSGETPIAQSDVIHIAGEAAGSLSINQRRRLGAAFVPEQRLGHATVPTMSLSDNALLTGHATGALVKFGLVNRGAALALVDRVSEAFDVRKASRDPEAARLSGGNLQKFIVGREILRQPRLLIVDQPSWGLDAGAASAIRQALLDLAASGAAVLVISQDLDELIEIADRIAVMFHGRLSPPRPVSEIGRDQLGLLMGGSGWPAEVRDVAGALEHHHHHH | not soluble
MPLTPADVHNVAFSKPPIGKRGYNEDEVDAFLDLVENELTRLIEENSDLRQRINELDQELAAGGGAGVTPQATQAIPAYEPEPGKPAPAAVSAGMNEEQALKAARVLSLAQDTADRLTNTAKAESDKMLADARANAEQILGEARHTADATVAEARQRADAMLADAQSRSEAQLRQAQEKADALQADAERKHSEIMGTINQQRAVLEGRLEQLRTFEREYRTRLKTYLESQLEELGQRGSAAPVDSNADAGGFDQFNRGKN | soluble
MTKIRQKSRKPGRTSRAKPVVAVVWYEDEQEWRAMRDLADDPERFEDSYEAWLTMFDRSLERLREGGAFPVRTPCNATKYREWCESKARSFDACSRSEYAAREFQARATQDE | not soluble
MNAKKRKGSAVERNIVSRLRDKGFAVVRAPASGSKRKDPIPDIIALKNGVIILIEMKSRKDIEGKIYVRREQAEGIIEFARKSGGSLFLGVKKPGVLKFIPFEKLRRTETGNYVADSEIEGLDLEDLVRLVEAKISRTLDNFL | soluble
MTNNDTTLQLSSVLNRECTRSRVHCQSKKRALEIISELAAKQLSLPPQVVFEAILTREKMGSTGIGNGIAIPHGKLEEDTLRAVGVFVQLETPIAFDAIDNQPVDLLFALLVPADQTKTHLHTLSLVAKRLADKTICRRLRAAQSDEELYQIITDTEGTPDEA | soluble
MTTMNPFLVQSTLPYLAPHFDQIANHHYRPAFDEGMQQKRAEIAAIALNPQTPDFNNTILALEQSGELITRVTSVFFAMTAAHTNDELQRLDEQFSAELAELANDIYLNGELFARVDAVWQRRESLGLDSESIRLVEVIHQRFVLAGAKLAQADKAKLKVLNTEAATLTSQFNQRLLAANKSGGLVVNDIAQLAGMSEQEIALAAEAAREKGLDNKWLIPLLNTTQQPALAEMRDRATREKLFIAGWTRAEKNDANDTRAIIQRLVEIRAQQAKLLGFPHYAAWKIADQMAKTPEAALNFMREIVPAARQRASDELASIQAVIDKQQGGFSAQPWDWAFYAEQVRREKFDLDEAQLRPYFELNTVLNEGVFWTANQLFGIKFVERFDIPVYHPDVRVWEIFDHNGVGLALFYGDFFARDSKSGGAWMGNFVEQSTLNETHPVIYNVCNYQKPAAGEPALLLWDDVITLFHEFGHTLHGLFARQRYATLSGTNTPRDFVEFPSQINEHWATHPQVFARYARHYQSGAAMPDELQQKMRNASLFNKGYEMSELLSAALLDMRWHCLEENEAMQDVDDFELRALVAENMDLPAIPPRYRSSYFAHIFGGGYAAGYYAYLWTQMLADDGYQWFVEQGGLTRENGQRFREAILSRGNSEDLERLHRQWRGKAPQIMPMLQHRGLNI | not soluble
